T1: human claudin 6 (CLDN6) (human, UniProt P56747 1-220)
T1 construct: also called human CLDN6; hCLDN6
T1 sequence: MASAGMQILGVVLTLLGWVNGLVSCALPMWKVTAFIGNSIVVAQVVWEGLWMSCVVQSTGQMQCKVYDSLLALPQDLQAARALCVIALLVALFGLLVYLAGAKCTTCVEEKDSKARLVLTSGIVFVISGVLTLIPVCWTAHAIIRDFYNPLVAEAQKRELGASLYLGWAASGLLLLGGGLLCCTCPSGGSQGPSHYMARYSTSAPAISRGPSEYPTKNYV


Columns and labels:
human claudin 6 (CLDN6) [1] = biological target: T1, human claudin 6 (CLDN6); assay: flow cytometry, HEK293T-human CLDN6 cells; ratio to chBG87P
Description: (§1) For affinity determination, CLDN6 over-expressing HEK293T cells and cancer cell line PA-1 which express high levels of human CLDN6 were used to evaluate the binding activity of BG87P related engineering variants. Live cells were seeded in 96-well plate, and were incubated with a series of dilutions of chBG87P and engineered variants thereof. Goat anti-human IgG was used as second antibody to detect antibody binding to the cell surface. EC50 values for dose-dependent binding to CLDN6 expressing cell lines were determined by fitting the dose-response data to the four-parameter logistic model with GraphPad Prism. Cell binding activity of 1st round of BG87P humanization variants against HEK293T/human CLDN6 were compared to chBG87P and shown in FIG. 1A.

human claudin 6 (CLDN6) [2] = biological target: T1, human claudin 6 (CLDN6); assay: flow cytometry, PA-1 cells; ratio to chBG87P
Description: as §1

Row | Binder | Emax ratio to BG87P (human claudin 6 (CLDN6) [1]) | Emax ratio to BG87P (human claudin 6 (CLDN6) [2])
1 | BG87P-Bz0 (antibody, V domains shown, Humanized, all back mutations; also called BG87P-B20; BG87-Bz0) VH: QIQLVQSGAEVKKPGASVKVSCKASGYSFTDYHINWVRQAPGQRLEWMGWIYPGSGYTKYNEKFKVRVTLTVDTSASTAYMELSSLRSEDTAVYFCARSGIYHYVSSYYFDHWGKGTTVTVSS VL: DIQMTQSPSTLSASVGDRVTITCKASQDVGTAVAWYQQKPGKSPKLLIYWASTRHTGVPSRFSGSGSGTEFTLTISSVQPDDFATYFCQQYSSYTFGGGTKVEIK | 0.56 | –
2 | BG87P-Bz6 (antibody, V domains shown, also called BG87P-B26) VH: QIQLVQSGAEVKKPGASVKVSCKASGYSFTDYHINWVRQAPGQRLEWMGWIYPGSGYTKYNEKFKVRVTLTVDTSASTAYMELSSLRSEDTAVYFCARSGIYHYVSSYYFDHWGKGTTVTVSS VL: DIQMTQSPSTLSASVGDRVTITCKASQDVGTAVAWYQQKPGKAPKLLIYWASTRHTGVPSRFSGSGSGTEFTLTISSVQPDDFATYFCQQYSSYTFGGGTKVEIK | 0.75 | –
3 | BG87P-24 (antibody, V domains shown) VH: QVQLVQSGAEVKKPGASVKVSCKASGYSFTDYHINWVRQAPGQRLEWMGWIYPGSGYTKYNEKFKGRVTLTRDTSASTAYMELSSLRSEDTAVYYCARSGIYHYVSSYYFDHWGKGTTVTVSS VL: DIQMTQSPSTLSASVGDRVTITCKASQDVGTAVAWYQQKPGKAPKLLIYWASTRHTGVPSRFSGSGSGTEFTLTISSLQPDDFATYYCQQYSSYTFGGGTKVEIK | 0.73 | 0.5
4 | BG87P-23 (antibody, V domains shown) VH: QIQLVQSGAEVKKPGASVKVSCKASGYSFTDYHINWVRQAPGQRLEWMGWIYPGSGYTKYNEKFKGRVTITRDTSASTAYMELSSLRSEDTAVYYCARSGIYHYVSSYYFDHWGKGTTVTVSS VL: DIQMTQSPSTLSASVGDRVTITCKASQDVGTAVAWYQQKPGKAPKLLIYWASTRHTGVPSRFSGSGSGTEFTLTISSLQPDDFATYYCQQYSSYTFGGGTKVEIK | 0.77 | 0.58
5 | BG87P-Bz1 (antibody, V domains shown) VH: QVQLVQSGAEVKKPGASVKVSCKASGYSFTDYHINWVRQAPGQRLEWMGWIYPGSGYTKYNEKFKVRVTLTVDTSASTAYMELSSLRSEDTAVYFCARSGIYHYVSSYYFDHWGKGTTVTVSS VL: DIQMTQSPSTLSASVGDRVTITCKASQDVGTAVAWYQQKPGKSPKLLIYWASTRHTGVPSRFSGSGSGTEFTLTISSVQPDDFATYFCQQYSSYTFGGGTKVEIK | 0.52 | –
6 | BG87P-Bz4 (antibody, V domains shown, also called BG87P-B24) VH: QIQLVQSGAEVKKPGASVKVSCKASGYSFTDYHINWVRQAPGQRLEWMGWIYPGSGYTKYNEKFKVRVTLTRDTSASTAYMELSSLRSEDTAVYFCARSGIYHYVSSYYFDHWGKGTTVTVSS VL: DIQMTQSPSTLSASVGDRVTITCKASQDVGTAVAWYQQKPGKSPKLLIYWASTRHTGVPSRFSGSGSGTEFTLTISSVQPDDFATYFCQQYSSYTFGGGTKVEIK | 0.57 | –
7 | BG87P-Bz3 (antibody, V domains shown, also called BG87P-B23) VH: QIQLVQSGAEVKKPGASVKVSCKASGYSFTDYHINWVRQAPGQRLEWMGWIYPGSGYTKYNEKFKVRVTITVDTSASTAYMELSSLRSEDTAVYFCARSGIYHYVSSYYFDHWGKGTTVTVSS VL: DIQMTQSPSTLSASVGDRVTITCKASQDVGTAVAWYQQKPGKSPKLLIYWASTRHTGVPSRFSGSGSGTEFTLTISSVQPDDFATYFCQQYSSYTFGGGTKVEIK | 0.56 | –
8 | BG87P-Bz2 (antibody, V domains shown) VH: QIQLVQSGAEVKKPGASVKVSCKASGYTFTDYHINWVRQAPGQRLEWMGWIYPGSGYTKYNEKFKVRVTLTVDTSASTAYMELSSLRSEDTAVYFCARSGIYHYVSSYYFDHWGKGTTVTVSS VL: DIQMTQSPSTLSASVGDRVTITCKASQDVGTAVAWYQQKPGKSPKLLIYWASTRHTGVPSRFSGSGSGTEFTLTISSVQPDDFATYFCQQYSSYTFGGGTKVEIK | 0.44 | –
9 | BG87P-Bz5 (antibody, V domains shown, also called BG87P-B25) VH: QIQLVQSGAEVKKPGASVKVSCKASGYSFTDYHINWVRQAPGQRLEWMGWIYPGSGYTKYNEKFKVRVTLTVDTSASTAYMELSSLRSEDTAVYYCARSGIYHYVSSYYFDHWGKGTTVTVSS VL: DIQMTQSPSTLSASVGDRVTITCKASQDVGTAVAWYQQKPGKSPKLLIYWASTRHTGVPSRFSGSGSGTEFTLTISSVQPDDFATYFCQQYSSYTFGGGTKVEIK | 0.73 | –
10 | BG87P-Bz7 (antibody, V domains shown, also called BG87P-B27) VH: QIQLVQSGAEVKKPGASVKVSCKASGYSFTDYHINWVRQAPGQRLEWMGWIYPGSGYTKYNEKFKVRVTLTVDTSASTAYMELSSLRSEDTAVYFCARSGIYHYVSSYYFDHWGKGTTVTVSS VL: DIQMTQSPSTLSASVGDRVTITCKASQDVGTAVAWYQQKPGKSPKLLIYWASTRHTGVPSRFSGSGSGTEFTLTISSLQPDDFATYFCQQYSSYTFGGGTKVEIK | 0.81 | –

The next lines start with the values.

Row | Emax ratio to BG87P (human claudin 6 (CLDN6) [1]) | Emax ratio to BG87P (human claudin 6 (CLDN6) [2]) | Binder
11 | 1.08 | – | BG87P-m1 (antibody, V domains shown, PTM removal variant of chBG87P) VH: QIQLQQSGPELVKPGASVKISCKASGYSFTDYHINWVKQRPGQGLEWIGWIYPGSGYTKYNEKFKVKATLTVDTSSSTAYMHLTSLTSEDSAVYFCARSGIYHYVSSYYFEHWGQGTTLTVSS VL: DIVMTQSHTFMSTSVGDRVSITCKASQDVGTAVAWYQQKPGQSPKLLIYWASTRHTGVPDRFTGSGSGTDFTLTISNVQSEDLADYFCQQYSSYTFGGGTKLEIK
12 | 0.74 | – | BG87P-m4 (antibody, V domains shown, Variant of chBG87P with H33A) VH: QIQLQQSGPELVKPGASVKISCKASGYSFTDYAINWVKQRPGQGLEWIGWIYPGSGYTKYNEKFKVKATLTVDTSSSTAYMHLTSLTSEDSAVYFCARSGIYHYVSSYYFDHWGQGTTLTVSS VL: DIVMTQSHTFMSTSVGDRVSITCKASQDVGTAVAWYQQKPGQSPKLLIYWASTRHTGVPDRFTGSGSGTDFTLTISNVQSEDLADYFCQQYSSYTFGGGTKLEIK
13 | 1.18 | – | BG87P-m3 (antibody, V domains shown, PTM removal variant of chBG87P with VH V65G) VH: QIQLQQSGPELVKPGASVKISCKASGYSFTDYHINWVKQRPGQGLEWIGWIYPGSGYTKYNEKFKGKATLTVDTSSSTAYMHLTSLTSEDSAVYFCARSGIYHYVSSYYFDHWGQGTTLTVSS VL: DIVMTQSHTFMSTSVGDRVSITCKASQDVGTAVAWYQQKPGQSPKLLIYWASTRHTGVPDRFTGSGSGTDFTLTISNVQSEDLADYFCQQYSSYTFGGGTKLEIK
14 | 1.05 | – | BG87P-m2 (antibody, V domains shown, PTM removal variant of chBG87P) VH: QIQLQQSGPELVKPGASVKISCKASGYSFTDYHINWVKQRPGQGLEWIGWIYPGSGYTKYNEKFKVKATLTVDTSSSTAYMHLTSLTSEDSAVYFCARSGIYHYVSSYYFQHWGQGTTLTVSS VL: DIVMTQSHTFMSTSVGDRVSITCKASQDVGTAVAWYQQKPGQSPKLLIYWASTRHTGVPDRFTGSGSGTDFTLTISNVQSEDLADYFCQQYSSYTFGGGTKLEIK
15 | 0.66 | – | BG87P-m5 (antibody, V domains shown, PTM removal variant of BG87P-Bz0) VH: QIQLVQSGAEVKKPGASVKVSCKASGYSFTDYHINWVRQAPGQRLEWMGWIYPGSGYTKYNEKFKVRVTLTVDTSASTAYMELSSLRSEDTAVYFCARSGIYHYVSSYYFEHWGKGTTVTVSS VL: DIQMTQSPSTLSASVGDRVTITCKASQDVGTAVAWYQQKPGKSPKLLIYWASTRHTGVPSRFSGSGSGTEFTLTISSVQPDDFATYFCQQYSSYTFGGGTKVEIK
16 | 0.62 | – | BG87P-m6 (antibody, V domains shown, PTM removal variant of BG87P-Bz0) VH: QIQLVQSGAEVKKPGASVKVSCKASGYSFTDYHINWVRQAPGQRLEWMGWIYPGSGYTKYNEKFKVRVTLTVDTSASTAYMELSSLRSEDTAVYFCARSGIYHYVSSYYFQHWGKGTTVTVSS VL: DIQMTQSPSTLSASVGDRVTITCKASQDVGTAVAWYQQKPGKSPKLLIYWASTRHTGVPSRFSGSGSGTEFTLTISSVQPDDFATYFCQQYSSYTFGGGTKVEIK
17 | 0.7 | – | BG87P-m7 (antibody, V domains shown, PTM removal variant of BG87P-Bz0) VH: QIQLVQSGAEVKKPGASVKVSCKASGYSFTDYHINWVRQAPGQRLEWMGWIYPGSGYTKYNEKFKGRVTLTVDTSASTAYMELSSLRSEDTAVYFCARSGIYHYVSSYYFDHWGKGTTVTVSS VL: DIQMTQSPSTLSASVGDRVTITCKASQDVGTAVAWYQQKPGKSPKLLIYWASTRHTGVPSRFSGSGSGTEFTLTISSVQPDDFATYFCQQYSSYTFGGGTKVEIK
18 | 0.68 | – | BG87P-Bz8 (antibody, V domains shown) VH: QIQLVQSGAEVKKPGASVKVSCKASGYSFTDYHINWVRQAPGQRLEWMGWIYPGSGYTKYNEKFKVRVTLTVDTSASTAYMELSSLRSEDTAVYFCARSGIYHYVSSYYFDHWGKGTTVTVSS VL: DIQMTQSPSTLSASVGDRVTITCKASQDVGTAVAWYQQKPGKSPKLLIYWASTRHTGVPSRFSGSGSGTEFTLTISSVQPDDFATYYCQQYSSYTFGGGTKVEIK
19 | 0.28 | – | BG87P-m8 (antibody, V domains shown, Variant of BG87P-Bz0 with H33A) VH: QIQLVQSGAEVKKPGASVKVSCKASGYSFTDYAINWVRQAPGQRLEWMGWIYPGSGYTKYNEKFKVRVTLTVDTSASTAYMELSSLRSEDTAVYFCARSGIYHYVSSYYFDHWGKGTTVTVSS VL: DIQMTQSPSTLSASVGDRVTITCKASQDVGTAVAWYQQKPGKSPKLLIYWASTRHTGVPSRFSGSGSGTEFTLTISSVQPDDFATYFCQQYSSYTFGGGTKVEIK

— patent US20240301061A1 (BEIGENE SWITZERLAND, published 2024)
